Assay results as given in paper PMC12412103, “An Amyloidogenic Fragment of the Spike Protein from SARS-CoV‑2 Virus Stimulates the Aggregation and Toxicity of Parkinson’s Disease Protein Alpha-Synuclein” (ACS Chemical Neuroscience, 2025).
Several values for one entry are separate records, joined by “and”; a condition that tells them apart may be missing. Identical values can stand only once.

Assays:
[1] = molecular target: α-synuclein (αSyn), wild type (human, UniProt P37840 1-140); assay: ITC; settings: both partners purified
[2] = molecular target: the molecule itself; assay: dynamic light scattering

B1: Spike 194–203 (S194), fibrillogenic fragment of the Spike protein of SARS-CoV-2 (peptide)
peptide: FKNIDGYFKI
notes: also called mS194 (monomer); fS194 (fibrils)
In the case of B1, the dH [1] is reported as -200 kcal/mol and -150 kcal/mol and the binding result [2] is reported as “binds”.
